Assay results: patent US8691944B2, “Fibronectin polypeptides and methods of use” (The Research Foundation for the State University of New York, priority 2005, dated 2014)

How the values were obtained:
[1] = biological target: VEGF; assay: Plasmon resonance binding of VEGF to FN domains
Excerpt: (§1) VEGF, TGF-β1, PDGF-BB and FGF-2 bound IIICS with similar affinities (KD˜10^−7 M). […] The tested biological activities of GFs bound to a FN functional domain were retained or enhanced. […] In addition, our studies provide important information regarding the delivery of GFs and the sequestering of GFs, as appropriate, for therapeutic (e.g., surgical) or aesthetic indications, including wound healing treatments (where an aim is GF delivery) and cancer treatments (where an aim is GF sequestration). Where FN fragments are used to deliver GFs, they may be described as maintaining, activating, stabilizing or enhancing GF activity.

[2] = test system: GFs; assay: Growth factor binding to FN domains (GFs in general)
Excerpt: (§2) This led us to speculate that PDGF was binding to the engineered ECM through the H or HV domain since vascular endothelial GF (VEGF), a member of the PDGF superfamily, had been reported to bind H and remain active while bound.

[3] = biological target: T1, PDGF-BB (Homo sapiens, UniProt P01127); assay: Surface plasmon resonance kinetic binding of PDGF-BB to FN domains; settings: for Kd: kinetic binding
Excerpt: as §1, with “activity. […]” for “activity.”

[4] = biological target: EGF (Homo sapiens, UniProt P01133); assay: Binding of EGF to FN, FN domains and peptides
Excerpt: as §1
(§3) The survival of FN-null fibroblasts in the presence to PDGF-BB required substrate coated with intact FN or FNIII8-11+a PDGF-binding FN domain. […] To address this directly, we performed equilibrium binding assays with PDGF-BB to FN adsorbed to a surface or coupled to agarose beads. In addition, we also investigated the ability of other growth factors to bind intact FN.
(§4) To determine whether FN domains bind TGF-β1 and bFGF, equilibrium and kinetic binding was performed.

[5] = biological target: T1, PDGF-BB; assay: Equilibrium binding of PDGF-BB to FN, FN domains and peptides
Excerpt: as §2, §3

[6] = biological target: T2, TGF-β1 (Homo sapiens, UniProt P01137); assay: Equilibrium binding of TGF-β1 to FN, FN domains and peptides
Method: These peptides represent domains that follow the sequence pattern [QN]-X(1,2)-[ST]-X(0,1)-[IG]-[QS]-[KRQ]-[YTM]-[IG]-X(4,5)-X(0,1)-[KR]-X(1,2)-X(1,2)-[RT]-X(1,2)-[KQTS]-X(2)-T and that bind TGF-β1 with a certain affinity. […] We know of no other peptides in the human genome database that follow this pattern.
as §4

[7] = test system: fibroblast chemotaxis; assay: Fibroblast chemotaxis to GFs in the presence or absence of FN domains; assay type: cell-based; settings: in solution
Method: To determine whether FN functional domains modulated TGF-β1, bFGF or PDGF-BB activity in solution, fibroblast chemotaxis was performed in response to the GFs in the presence or absence of FN domains.

[8] = biological target: FGF-2 (Homo sapiens, UniProt P09038); assay: Plasmon resonance binding of FGF-2 to FN domains
Excerpt: as §1

[9] = biological target: bFGF (Homo sapiens, UniProt P09038); assay: Equilibrium binding of bFGF (FGF-2) to FN, FN domains and peptides; settings: method not specified (equilibrium and kinetic binding performed); read-out: KD, bFGF binding
Method: as §3, §4

[10] = test system: mouse fibroblasts null for FN (FN−/−); assay: Survival of FN-null fibroblasts on FN domains with PDGF-BB; assay type: cell-based; settings: for FN-null cell survival / proliferation with PDGF-BB: FNIII8-11 + the named domain, or named protein
Excerpt: To further investigate the response of cells to PDGF-BB bound to FN domains, we investigated the survival response of mouse fibroblasts null for FN (FN−/−). First we determined the response of FN-null cells to PDGF-BB in the absence of serum or other sources of exogenous FN. […] […] […] Importantly, differential response of FN-null cells, plated on different FN domains, to PDGF-BB was not secondary to differences in attachment as judged by cell counts two hours after plating. The FNIII8-11 central cell binding domain was present in all circumstances.

[11] = biological target: T2, TGF-β1; assay: Plasmon surface resonance kinetic binding of TGF-β1 to FN domains; settings: for Kd: plasmon (surface) resonance, kinetic binding
Excerpt: as §1, §4

[12] = method not specified (equilibrium and kinetic binding performed)

Chain of bFGF (P09038 143-288): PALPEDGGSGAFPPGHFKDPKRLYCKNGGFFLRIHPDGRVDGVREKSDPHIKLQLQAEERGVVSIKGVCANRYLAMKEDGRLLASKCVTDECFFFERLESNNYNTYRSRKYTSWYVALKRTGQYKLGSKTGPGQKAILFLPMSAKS
Chain of FGF-2 (P09038 143-288): as above
T1 sequence (P01127 82-190 limits assumed): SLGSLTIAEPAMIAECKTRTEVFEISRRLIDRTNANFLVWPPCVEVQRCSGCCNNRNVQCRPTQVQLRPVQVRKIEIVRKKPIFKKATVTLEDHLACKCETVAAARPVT
T2 sequence (P01137 279-390 limits assumed, species assumed): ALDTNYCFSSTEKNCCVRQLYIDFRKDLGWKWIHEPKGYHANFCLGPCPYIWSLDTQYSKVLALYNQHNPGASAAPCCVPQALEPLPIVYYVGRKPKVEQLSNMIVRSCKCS
Chain of EGF (P01133 971-1023 limits assumed, species assumed): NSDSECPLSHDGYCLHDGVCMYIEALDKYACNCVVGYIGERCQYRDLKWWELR

B1: FNIII12-V15: composite heparinII-binding and variably-spliced IIICS domains (protein)
chain: MGSAIPAPTDLKFTQVTPTSLSAQWTPPNVQLTGYRVRVTPKEKTGPMKEINLAPDSSSVVVSGLMVATKYEVSVYALKDTLTSRPAQGVVTTLENVSPPRRARVTDATETTITISWRTKTETITGFQVDAVPANGQTPIQRTIKPDVRSYTITGLQPGTDYKIYLYTLNDNARSSPVVIDASTAIDAPSNLRFLATTPNSLLVSWQPPRARITGYIIKYEKPGSPPREVVPRPRPGVTEATITGLEPGTEYTIYVIALKNNQKSEPLIGRKKTDELPQLVTLPHPNLHGPEILDVPSTVQKTPFVTHPGYDTGNGIQLPGTSGQQPSVGQQMIFEEHGFRRTTPPTTATPIRHRPRPYPPNVGEEIQIGHIPREDVDYHLYPHGPGLNPNASTGQEALSQTTISWAPFQDTSEYIISCHPVGTDEEPLQFRVPGTSTSATLTGLTRGATYNVIVEALKDQQRHKVREEVVTVGNSVNEGTSHHHHHHC
Question: Which results are given for B1?
Answer: Kd [1]: 0.6 nM; GF binding on addition of salt or acid ([2]; up to 2.5 M NaCl added or pH lowered to about 2.0): failed to demonstrate any diminution; Kd [3]: 17 nM; EGF binding (in words) [4]: all GFs, except EGF, bound; Kd [5]: 21 nM; Kd ([6]; equilibrium binding): 97 nM; chemotactic activity when assayed alone [7]: no chemotactic activity; enhancement of chemotactic activity of TGF-β1, bFGF and PDGF-BB [7]: enhanced the chemotactic activity; Kd [8]: 37 nM; Kd [9]: 37 nM; FN-null cell survival / proliferation with PDGF-BB [10]: enhance survival

B2: FNIII12-15: heparin II binding domain of FN (protein)
chain: MGSTIPAPTDLKFTQVTPTSLSAQWTPPNVQLTGYRVRVTPKEKTGPMKEINLAPDSSSVVVSGLMVATKYEVSVYALKDTLTSRPAQGVVTTLENVSPPRRARVTDATETTITISWRTKTETITGFQVDAVPANGQTPIQRTIKPDVRSYTITGLQPGTDYKIYLYTLNDNARSSPVVIDASTAIDAPSNLRFLATTPNSLLVSWQPPRARITGYIIKYEKPGSPPREVVPRPRPGVTEATITGLEPGTEYTIYVIALKNNQKSEPLIGRKKTGQEALSQTTISWAPFQDTSEYIISCHPVGTDEEPLQFRVPGTSTSATLTGLTRGATYNVIVEALKDQQRHKVREEVVTVGNSVNEGTSHHHHHHC
Question: With B2 as the molecule, how does the Kd [3] read?
Answer: 68 nM

Question: And the Kd [5]?
Answer: 6.8 nM

Question: What about the Kd [6, 12] of the same molecule?
Answer: 16 nM

Question: And the Kd [8]?
Answer: 170 nM

Question: And the Kd [9]?
Answer: 130 nM

Question: What about the Kd [11] of the same molecule?
Answer: 16 nM

B3: FNIII12-14: recombinant FN type III repeats 12-14, heparinII-binding domain (protein)
chain: MGSAIPAPTDLKFTQVTPTSLSAQWTPPNVQLTGYRVRVTPKEKTGPMKEINLAPDSSSVVVSGLMVATKYEVSVYALKDTLTSRPAQGVVTTLENVSPPRRARVTDATETTITISWRTKTETITGFQVDAVPANGQTPIQRTIKPDVRSYTITGLQPGTDYKIYLYTLNDNARSSPVVIDASTAIDAPSNLRFLATTPNSLLVSWQPPRARITGYIIKYEKPGSPPREVVPRPRPGVTEATITGLEPGTEYTIYVIALKNNQKSEPLIGRKKTTSHHHHHHC
Question: How did the Kd [3] turn out when B3 was run?
Answer: 55 nM

Question: And the Kd [5]?
Answer: 35 nM

Question: What about the Kd [6, 12] of the same molecule?
Answer: 7.6 nM

Question: What about the Kd [9] of the same molecule?
Answer: 1.9 nM

Question: What about the Kd [11] of the same molecule?
Answer: 7.6 nM

Question: And the “FN-null cell survival / proliferation with PDGF-BB” value [10]?
Answer: enhance survival

Question: What about the “FN-null cell survival with PDGF” value ([10]; plastic precoated with 0.15 μM GST-tagged FNIII8-11 ± the named domain, or named protein, PDGF-BB added 1 day after plating, 3 days) of the same molecule?
Answer: increased survival

B4: FNIII1-7: FN type III repeats 1-7 (protein)
chain: GPVEVFITETPSQPNSHPIQWNAPQPSHISKYILRWRPKNSVGRWKEATIPGHLNSYTIKGLKPGVVYEGQLISIQQYGHQEVTRFDFTTTSTSTPVTSNTVTGETTPFSPLVATSESVTEITASSFVVSWVSASDTVSGFRVEYELSEEGDEPQYLDLPSTATSVNIPDLLPGRKYIVNVYQISEDGEQSLILSTSQTTAPDAPPDTTVDQVDDTSIVVRWSRPQAPITGYRIVYSPSVEGSSTELNLPETANSVTLSDLQPGVQYNITIYAVEENQESTPVVIQQETTGTPRSDTVPSPRDLQFVEVTDVKVTIMWTPPESAVTGYRVDVIPVNLPGEHGQRLPISRNTFAEVTGLSPGVTYYFKVFAVSHGRESKPLTAQQTTKLDAPTNLQFVNETDSTVLVRWTPPRAQITGYRLTVGLTRRGQPRQYNVGPSVSKYPLRNLQPASEYTVSLVAIKGNQESPKATGVFTTLQPGSSIPPYNTEVTETTIVITWTPAPRIGFKLGVRPSQGGEAPREVTSDSGSIVVSGLTPGVEYVYTIQVLRDGQERDAPIVNKVVTPLSPPTNLHLEANPDTGVLTVSWERSTTPDITGYRITTTPTNGQQGNSLEEVVHADQSSCTFDNLSPGLEYNVSVYTVKDDKESVPISDTIIP
Question: Which results are given for B4?
Answer: VEGF binding (in words) [1]: all four GFs bound; PDGF-BB binding (in words) [3]: all four GFs bound; Kd [3]: 100 nM; Kd [5]: 75 nM; Kd ([6]; equilibrium binding): 17 nM; FGF-2 binding (in words) [8]: all four GFs bound; Kd [9]: 4.1 nM; Kd [11]: 18 nM; TGF-β1 binding (in words) ([11]; plasmon resonance): all four GFs bound

B5: FNIII12-13: FN type III repeats 12-13 (protein)
chain: AIPAPTDLKFTQVTPTSLSAQWTPPNVQLTGYRVRVTPKEKTGPMKEINLAPDSSSVVVSGLMVATKYEVSVYALKDTLTSRPAQGVVTTLENVSPPRRARVTDATETTITISWRTKTETITGFQVDAVPANGQTPIQRTIKPDVRSYTITGLQPGTDYKIYLYTLNDNARSSPVVIDAST
Question: B5 was tested. Which Kd [5] did it give?
Answer: 75 nM

B6: FNIII3-6: recombinant FN type III repeats 3-6 (protein)
chain: MGSAPDAPPDTTVDQVDDTSIVVRWSRPQAPITGYRIVYSPSVEGSSTELNLPETANSVTLSDLQPGVQYNITIYAVEENQESTPVVIQQETTGTPRSDTVPSPRDLQFVEVTDVKVTIMWTPPESAVTGYRVDVIPVNLPGEHGQRLPISRNTFAEVTGLSPGVTYYFKVFAVSHGRESKPLTAQQTTKLDAPTNLQFVNETDSTVLVRWTPPRAQITGYRLTVGLTRRGQPRQYNVGPSVSKYPLRNLQPASEYTVSLVAIKGNQESPKATGVFTTLQPGSSIPPYNTEVTETTIVITWTPAPRIGFKLGVRPSQGGEAPREVTSDSGSIVVSGLTPGVEYVYTIQVLRDGQERDAPIVNKVVTTSHHHHHHC
Question: B6 was tested. Which “binding of any GF (in words)” value [2] did it give?
Answer: In no case did any GF bind

Question: What about the “PDGF-BB binding (in words)” value [3] of the same molecule?
Answer: no binding

Question: And the “PDGF-BB binding (in words)” value [5]?
Answer: did not

Question: What about the “enhancement of chemotactic activity of TGF-β1, bFGF and PDGF-BB” value [7] of the same molecule?
Answer: did not enhance

Question: And the “support of FN-null fibroblast survival in the presence of PDGF-BB” value ([10]; substrate coating, FNIII8-11 alone or + named domain)?
Answer: did not support cell survival
